Holding throughout (test): FRET (FIRE system)
The target in assay [1] is FIRE construct Y-TMG-/C-TMG-CC1 R304K, Q13586-1. The following applies: HEK 293 cells; n=52; parent: est. 0.084; read off a plot.
Assay [2] deals with FIRE construct Y-TMG-/C-TMG-CC1α1α2 R304K, Q13586-1. The following applies: HEK 293 cells; n=18; parent: est. 0.077; read off a plot.
The target in assay [3] is FIRE construct Y-TMG-/C-TMG-CC1 L251S R304W, Q13586-1. The following applies: HEK 293 cells; n=39; parent: est. 0.084; read off a plot.
For assay [4], the target named is FIRE construct Y-TMG-/C-TMG-CC1α1α2 L251S R304W, Q13586-1. The following applies: HEK 293 cells; n=9; parent: est. 0.077; read off a plot.
Chain of FIRE construct Y-TMG-/C-TMG-CC1α1α2 L251S R304W, Q13586-1 (Q13586 whole entry L251S/R304W, looked up): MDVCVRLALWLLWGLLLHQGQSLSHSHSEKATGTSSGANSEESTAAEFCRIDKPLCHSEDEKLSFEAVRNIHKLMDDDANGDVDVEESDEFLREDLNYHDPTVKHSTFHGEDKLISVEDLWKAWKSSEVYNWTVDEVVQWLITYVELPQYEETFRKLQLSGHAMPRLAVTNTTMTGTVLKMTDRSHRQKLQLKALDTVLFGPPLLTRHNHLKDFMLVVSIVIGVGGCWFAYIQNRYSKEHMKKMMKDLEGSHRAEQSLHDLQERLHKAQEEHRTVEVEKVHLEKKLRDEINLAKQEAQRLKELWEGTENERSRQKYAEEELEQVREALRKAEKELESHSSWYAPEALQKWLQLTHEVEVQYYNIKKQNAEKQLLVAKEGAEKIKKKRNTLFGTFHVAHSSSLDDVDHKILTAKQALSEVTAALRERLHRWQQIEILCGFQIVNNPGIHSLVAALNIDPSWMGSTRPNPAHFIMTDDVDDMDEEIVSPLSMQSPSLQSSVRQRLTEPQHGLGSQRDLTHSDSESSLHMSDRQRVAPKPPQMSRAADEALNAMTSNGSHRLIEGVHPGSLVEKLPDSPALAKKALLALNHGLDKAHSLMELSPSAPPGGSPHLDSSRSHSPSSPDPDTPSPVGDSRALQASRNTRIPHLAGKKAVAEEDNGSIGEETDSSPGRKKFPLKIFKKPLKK

Chain of FIRE construct Y-TMG-/C-TMG-CC1 R304K, Q13586-1 (Q13586 whole entry R304K, looked up): as the sequence (Q13586 whole entry L251S/R304W, looked up) above, with S251L, W304K counted along it
Chain of FIRE construct Y-TMG-/C-TMG-CC1α1α2 R304K, Q13586-1 (Q13586 whole entry R304K, looked up): as the sequence (Q13586 whole entry L251S/R304W, looked up) above, with S251L, W304K counted along it
Chain of FIRE construct Y-TMG-/C-TMG-CC1 L251S R304W, Q13586-1 (Q13586 whole entry L251S/R304W, looked up): as the sequence (Q13586 whole entry L251S/R304W, looked up) above

In the case of “FIRE construct Y-TMG-/C-TMG-CC1 (STIM1 CC1 233–343) wild type (from UniProt Q13586-1) R304K”, the response in assay [1] is 0.074 Eapp.
For “FIRE construct Y-TMG-/C-TMG-CC1α1α2 (STIM1 233–309) wild type (from UniProt Q13586-1) R304K”, in assay [2], the response came out at 0.06 Eapp.
On to “FIRE construct Y-TMG-/C-TMG-CC1 (STIM1 CC1 233–343) wild type (from UniProt Q13586-1) L251S; R304W”, for which, in assay [3], the response worked out at 0.096 Eapp.
As to “FIRE construct Y-TMG-/C-TMG-CC1α1α2 (STIM1 233–309) wild type (from UniProt Q13586-1) L251S; R304W”, the response in assay [4] worked out at 0.091 Eapp.

(Values after article PMC5827659.)
